These results are taken from the supplement of paper PMC10567573.

± gives the standard deviation.

The data set in a line: protein stability index of a GFP-peptide fusion (GPS, HEK-293T) (PSI 1-6); higher = more stable. The note with it: c terminus: a fixed tail appended.
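Note: 24-mer peptide tiles fused after GFP, lentivirally expressed, FACS-sorted into six equal bins by GFP/DsRed ratio, decoded by Illumina sequencing, PSI is the read-weighted mean bin number.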

Consider TLHAVEKLQVRLATKTEPKKLEKY [ELOA2], for which the protein stability index came out at 3.7 ± 0.31 (treatment: DMSO) and 3.73 ± 0.41 (treatment: MLN4924 1 uM, 8 h).

The sequence WIPQAGPPELNYGATGECQNFLDP [ZNF449] returned a protein stability index (treatment: DMSO) of 4.29 ± 0.18 and a protein stability index (treatment: MLN4924 1 uM, 8 h) of 4.28 ± 0.27.

As to EPQPFVTSDVYSSDAAFGGILERY [MYORG], the protein stability index runs as follows: (treatment: DMSO) 3.79 ± 0.095; (treatment: MLN4924 1 uM, 8 h) 3.87 ± 0.058.

As for ASWYSLSKGMQDFNYLHTNCFEIT [CPN1], the protein stability index reads like this: (treatment: DMSO) 2.56 ± 0.58; (treatment: MLN4924 1 uM, 8 h) 2.23 ± 0.4.

KAPVQNEAPALGGGEYQEPGGNVK [BEX5]: the protein stability index is 5.48 ± 0.21 (treatment: DMSO) and 5.54 ± 0.26 (treatment: MLN4924 1 uM, 8 h).

In turn, LGAGSDLKDFTLNETVNSIFAQGA [ADAMTSL2] came in with a protein stability index (treatment: DMSO) of 3.12 ± 0.2 and a protein stability index (treatment: MLN4924 1 uM, 8 h) of 3.28 ± 0.35.

As to LLPQERPLMQGPRTRPRKPIRCGE [KLHL20], the protein stability index reads like this: (treatment: DMSO) 3.71 ± 0.35; (treatment: MLN4924 1 uM, 8 h) 3.98 ± 0.084.

As for RWSRVGGQRFYSRVLSPLHRGPSG, the protein stability index by setting is: (treatment: DMSO) 2.9 ± 0.27; (treatment: MLN4924 1 uM, 8 h) 2.72 ± 0.42.

Regarding HRERVAMHYQMSVTLKYEIKKLIY [JAGN1], the protein stability index was determined as 2.71 ± 0.49 (treatment: DMSO) and 2.92 ± 0.45 (treatment: MLN4924 1 uM, 8 h).

On to ADLWYLFGDLSLSLVTVGKHLTAR [POMT2], for which the protein stability index reads like this: (treatment: DMSO) 3.17 ± 0.74; (treatment: MLN4924 1 uM, 8 h) 2.56 ± 0.8.

Consider DATWAAVAACTKEIDTQGRHLAHS [C10orf62], for which the protein stability index reads like this: (treatment: DMSO) 4.04 ± 0.24; (treatment: MLN4924 1 uM, 8 h) 4.09 ± 0.39.

TSAVLKAGRQSVSGRKNSTSKDLV [C6orf223] came in with a protein stability index (treatment: DMSO) of 4.26 ± 0.074 and a protein stability index (treatment: MLN4924 1 uM, 8 h) of 4.38 ± 0.22.

AISITAIAKYSDGASKAAGVFGFF [CMTM3] gave a protein stability index (treatment: DMSO) of 2.96 ± 0.88 and a protein stability index (treatment: MLN4924 1 uM, 8 h) of 2.78 ± 0.4.

Take ALVVALWGPLQDSLEHTLRVAIAH [TSPAN10]: the protein stability index worked out at 2.89 ± 0.12 (treatment: DMSO) and 3.05 ± 0.15 (treatment: MLN4924 1 uM, 8 h).

In the case of HHGGDYKHWREWGSHAQTSQIQSI [CRYBA1], the protein stability index by setting is: (treatment: DMSO) 3.1 ± 0.14; (treatment: MLN4924 1 uM, 8 h) 3.19 ± 0.26.

In the case of GGFGGGFAGGFVDFGACDGGLLTG [KRT13], the protein stability index is, setting by setting: (treatment: DMSO) 2.71 ± 0.084; (treatment: MLN4924 1 uM, 8 h) 3.12 ± 0.25.

EDFIFSHFFGDKALKKRSGKKDKH [PBXIP1]: the protein stability index was 3.82 ± 0.079 (treatment: DMSO) and 4.13 ± 0.16 (treatment: MLN4924 1 uM, 8 h).

With CMSFNPETRRLSIGLDNGTISEFI [WDFY2], the protein stability index (treatment: DMSO) was determined as 2.42 ± 0.56 and the protein stability index (treatment: MLN4924 1 uM, 8 h) came out at 2.89 ± 0.38.

Regarding AGGAGRGEDEENREHRVRRIHVRR [KCTD13], the protein stability index by setting is: (treatment: DMSO) 5.19 ± 0.16; (treatment: MLN4924 1 uM, 8 h) 5.34 ± 0.28.

As for TGEVRTARALLEDDSDTQQVVVLV [PCDHGC5], the protein stability index is, setting by setting: (treatment: DMSO) 2.5 ± 0.39; (treatment: MLN4924 1 uM, 8 h) 2.82 ± 0.27.

On to KCIFTQFRIILGDFDYNAIDNANR [PKD2L1], for which the protein stability index reads like this: (treatment: DMSO) 2.41 ± 0.32; (treatment: MLN4924 1 uM, 8 h) 2.52 ± 0.36.

Take RQLAYSTVGTPDYIAPEVFMQTGY [STK38L]: the protein stability index is, setting by setting: (treatment: DMSO) 3.06 ± 0.46; (treatment: MLN4924 1 uM, 8 h) 3.29 ± 0.42.

Regarding EPWLPLTDGRSPRRSRDPGYDHLW [PLEKHN1], the protein stability index was determined as 3.68 ± 0.14 (treatment: DMSO) and 3.57 ± 0.26 (treatment: MLN4924 1 uM, 8 h).

As for WFHAKSAELNKEVSTNTAMIQTSK [KRT13], the protein stability index by setting is: (treatment: DMSO) 4.09 ± 0.24; (treatment: MLN4924 1 uM, 8 h) 4.11 ± 0.11.

Turning to CPPLHIPGSMSEVQELCKQLHAKI [TNNI2], the protein stability index is, setting by setting: (treatment: DMSO) 2.88 ± 0.3; (treatment: MLN4924 1 uM, 8 h) 2.93 ± 0.14.

GAVYADSGNFERCIRLWKYALDMQ [FEM1A]: the protein stability index is 2.38 ± 0.14 (treatment: DMSO) and 2.24 ± 0.38 (treatment: MLN4924 1 uM, 8 h).

Regarding KEFQQVFIPECNDDGTYSQVQCHS [SMOC2], the protein stability index reads like this: (treatment: DMSO) 4.01 ± 0.36; (treatment: MLN4924 1 uM, 8 h) 4.38 ± 0.29.

As to LGRFNDINVPIRLECVKFASHCLM [PDS5B], the protein stability index worked out at 2.83 ± 1.6 (treatment: DMSO) and 2.41 ± 0.94 (treatment: MLN4924 1 uM, 8 h).

In the case of PSRGGNQLPRPPIVGGNKGRSGPL [WAS], the protein stability index came to 4.6 ± 0.07 (treatment: DMSO) and 4.73 ± 0.22 (treatment: MLN4924 1 uM, 8 h).
